Numbering of substitutions follows the chain as printed. Read-outs that look alike come from different tables or passages of the source. PLA = 3-phenyllactic acid (2-hydroxy-3-phenylpropanoic acid)
B1: [PLA6, E9, K12E16 (Lactam)] glucagon (6-CEX) analog (peptide)
peptide: TSEYSKYLDERRAQDFVQWLMNTGPSSGAPPPS
modifications: PLA at position 6, N-terminal to the letters given; lactam between K12 and E16 (glucagon numbering)
B2: [PLA6, E9]Glucagon (aa6-29 + CEX)-NH2 (peptide)
peptide: {PLA}-TSEYSKYLDSRRAQDFVQWLMNTGPSSGAPPPS-NH2
B3: Glucagon (6-CEX) analog E9, K12, E16 (peptide)
peptide: FTSEYSKYLDERRAQDFVQWLMNTGPSSGAPPPS
B4: Glucagon (6-CEX) analog E9, K12E16 (lactam) (peptide)
peptide: B3 peptide
modifications: lactam between K12 and E16 (glucagon numbering)
B5: Glucagon (6-CEX) analog E9, E16K20 (lactam) (peptide)
peptide: B3 peptide with Q15K
modifications: lactam between E16 and K20 (glucagon numbering)
B6: Glucagon (6-CEX) analog D9, K12E16 (Lactam) (peptide)
peptide: B3 peptide with E4D
modifications: lactam between K12 and E16 (glucagon numbering)

What was measured:
glucagon receptor [1] = molecular target: glucagon receptor (UniProt P47871); assay: cell-based or functional assay
Sequence of glucagon receptor (P47871 26-477 limits assumed): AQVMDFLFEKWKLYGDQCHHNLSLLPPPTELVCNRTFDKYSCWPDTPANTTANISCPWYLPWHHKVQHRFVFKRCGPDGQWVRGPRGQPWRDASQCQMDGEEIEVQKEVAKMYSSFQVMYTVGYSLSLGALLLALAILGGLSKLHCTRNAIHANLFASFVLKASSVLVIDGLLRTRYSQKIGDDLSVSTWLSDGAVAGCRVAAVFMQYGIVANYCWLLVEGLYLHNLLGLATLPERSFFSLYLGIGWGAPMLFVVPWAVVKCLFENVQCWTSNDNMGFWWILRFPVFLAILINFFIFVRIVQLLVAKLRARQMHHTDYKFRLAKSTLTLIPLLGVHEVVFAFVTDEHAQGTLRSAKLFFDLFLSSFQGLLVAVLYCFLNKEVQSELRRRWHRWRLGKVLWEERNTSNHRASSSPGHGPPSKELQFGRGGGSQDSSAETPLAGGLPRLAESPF

GLP-1 receptor [2] = molecular target: GLP-1 receptor (UniProt P43220); assay: cell-based or functional assay
Sequence of GLP-1 receptor (P43220 24-463 limits assumed): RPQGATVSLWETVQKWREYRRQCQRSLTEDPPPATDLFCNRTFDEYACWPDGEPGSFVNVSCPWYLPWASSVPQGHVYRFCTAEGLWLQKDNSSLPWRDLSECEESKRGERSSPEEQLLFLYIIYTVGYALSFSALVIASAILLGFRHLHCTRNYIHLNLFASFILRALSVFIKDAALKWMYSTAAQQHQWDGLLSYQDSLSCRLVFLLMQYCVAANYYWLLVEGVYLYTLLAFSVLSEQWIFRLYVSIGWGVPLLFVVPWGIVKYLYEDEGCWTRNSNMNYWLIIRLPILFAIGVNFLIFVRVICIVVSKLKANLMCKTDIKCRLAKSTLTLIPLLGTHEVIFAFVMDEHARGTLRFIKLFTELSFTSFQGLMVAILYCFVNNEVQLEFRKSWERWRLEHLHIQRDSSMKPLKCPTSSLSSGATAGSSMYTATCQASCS

glucagon receptor [3] = molecular target: glucagon receptor (UniProt P47871); assay: cell-based or functional assay; remark: listed apart in the source
[4] = molecular target: glucagon receptor, P47871; assay: receptor binding, method not described
Sequence of glucagon receptor, P47871 (P47871 26-477 limits assumed): as the sequence (P47871 26-477 limits assumed) above

[5] = molecular target: glucagon receptor, P47871; assay: cell-based or functional assay
GLP-1 receptor [6] = molecular target: GLP-1 receptor (UniProt P43220); assay: cell-based or functional assay; remark: listed apart in the source

Binder | Glucagon IC50 (glucagon receptor [1]) [µM] | GLP-1 (EC50) (GLP-1 receptor [2]) [µM] | Glu IC50 (glucagon receptor [3]) [µM] | IC50 [4] [µM] | IC50(nM) (cAMP, inhibit Glucagon) 0.1 nM or 0.2 nM [5] | GLP-1 (EC50) (GLP-1 receptor [6]) [µM]
B1 | 0.072 | 0.006 | 0.072 |  |  | 
B2 |  |  |  | 0.0403 | 24.8 | 
B3 | 0.762 |  | 0.762 |  |  | 
B4 | 2.01 | 0.063 | 2.01 |  |  | 
B5 | 0.042 | 0.036 | 0.042 |  |  | 
B6 | 0.828 | 0.119 | 0.828 |  |  | 0.018

Source: patent US20120322725A1
